Experimental data from US20220153839A1 (NBE THERAPEUTICS, published 2022).
Changes are numbered by the printed parent chain.

B1: HuXBR1-402(15) (mAb290) (antibody, human IgG1, V domains shown)
VH: QVQLQESGPGLVKPSETLSLTCTVSGFDISSYYMSWVRQPPGKGLEWIGAIGISGNAYYASWAKSRVTISRDTSKNQFSLKLSSVTAADTAVYYCARDHPTYGMDLWGPGTLVTVSS
VL: SYELTQPPSVSVAPGKTARITCEGNNIGSKAVHWYQQKPGQAPVLVIYDDDERPSGIPERFSGSNSGNTATLTISRVEAGDEADYYCQVWDSSAYVFGGGTKLTVLG
notes: Humanized IgG (human IgG1 constant regions, lambda)
B2: HuXBR1-402(3) (mAb288) (antibody, human IgG1, V domains shown)
VH: B1 VH with Q5R
VL: B1 VL with P8L, P14L, K16Q, V77A, E78Q
notes: as for B1
B3: HuXBR1-402(17) (mAb291) (antibody, human IgG1, V domains shown)
VH: B1 VH with Q5R
VL: B1 VL
notes: as for B1
B4: HuXBR1-402(8) (mAb289) (antibody, human IgG1, V domains shown)
VH: B1 VH
VL: SYELTQPPSVSVSPGQTAIITCEGNNIGSKAVHWYQQKPGLSPVLVIYDDDERPSGIPERFSGSNSGNTATLTVSGTQDMDEADYYCQVWDSSAYVFGGGTKLTVLG
notes: as for B1
B5: HuXBR1-402(19) (mAb295) (antibody, human IgG1, V domains shown)
VH: B1 VH with K43N
VL: B1 VL
notes: as for B1
B6: HuXBR1-402(26) (mAb296) (antibody, human IgG1, V domains shown)
VH: B1 VH with K43N
VL: B1 VL with P8L, P14L, K16Q, Q41L, V77A, E78Q, K102Q
notes: as for B1
B7: HuXBR1-402(3)-G5-PNU (Adc456) (other)
VH: B1 VH with Q5R
VL: B1 VL with P8L, P14L, K16Q, V77A, E78Q
modifications: Gly5-EDA-PNU joined by sortase to the C-terminal G5SLPETG tag of the full light chain; Gly5-EDA-PNU joined by sortase to the C-terminal LPETG tag of the full heavy chain
B8: HuXBR1-402(19)-G5-PNU (Adc460) (other)
VH: B1 VH with K43N
VL: B1 VL
modifications: Gly5-EDA-PNU joined by sortase to the C-terminal G5SLPETG tag of the full light chain; Gly5-EDA-PNU joined by sortase to the C-terminal LPETG tag of the full heavy chain
B9: HuXBR1-402(17)-G5-PNU (Adc459) (other)
VH: B1 VH with Q5R
VL: B1 VL
modifications: Gly5-EDA-PNU joined by sortase to the C-terminal G5SLPETG tag of the full light chain; Gly5-EDA-PNU joined by sortase to the C-terminal LPETG tag of the full heavy chain
B10: HuXBR1-402(8)-G5-PNU (Adc457) (other)
VH: B1 VH
VL: B4 VL
modifications: Gly5-EDA-PNU joined by sortase to the C-terminal G5SLPETG tag of the full light chain; Gly5-EDA-PNU joined by sortase to the C-terminal LPETG tag of the full heavy chain
B11: HuXBR1-402(26)-G5-PNU (Adc461) (other)
VH: B1 VH with K43N
VL: B1 VL with P8L, P14L, K16Q, Q41L, V77A, E78Q, K102Q
modifications: Gly5-EDA-PNU joined by sortase to the C-terminal G5SLPETG tag of the full light chain; Gly5-EDA-PNU joined by sortase to the C-terminal LPETG tag of the full heavy chain
B12: HuXBR1-402(15)-G5-PNU (Adc458) (other)
VH: B1 VH
VL: B1 VL
modifications: Gly5-EDA-PNU joined by sortase to the C-terminal G5SLPETG tag of the full light chain; Gly5-EDA-PNU joined by sortase to the C-terminal LPETG tag of the full heavy chain
B13: ERR1-TOP54 (antibody, IgG1, V domains shown)
VH: QSLEESGGRLVTPGTPLTLTCTASGFSLSDYYMSWVRQAPGEGLEWIGTIYGGSGNTWYATWAKGRFTISKTSTTVDLKITSPTTEDTATYFCARDFGLSTGGLWGPGTLVTISS
VL: SYELTQLPSVSVSLGQTARITCGGNSIGSKAVNWYQQKPGLAPGLLIYDDDERPSGVPDRFSGSNSGDTATLTISGAQAGDEADYYCQLWDSSARAFVFGGGTQLTVTG
notes: also called ERR1-TOP54 chimeric rabbit/human IgG1
B14: ERR1-Top43-G5-PNU (adc204) antibody drug conjugate (other)
VH: QSLEESGGRLVTPGTPLTLTCTVSGFSLSSYWMSWVRQAPGKGLEWIGAIYGSGNTYYASWAKGRFTISKTSTTVDLKITSPTTEDTATYFCARDVHSTATDLWGPGTLVTISS
VL: B13 VL with S26N, D49N, R95G, F97Y
modifications: Gly5-EDA-PNU joined by sortase to the C-terminal G5SLPETG tag of the full light chain; Gly5-EDA-PNU joined by sortase to the C-terminal LPETG tag of the full heavy chain
B15: ERR1-306 (mAb033) IgG with C-terminal sortase and Strep tags (antibody, V domains shown)
VH: QEQLKESGGGLVQPGGSLKLSCKASGFDLSNYGVSWVRQAPGKGLEWIGYIDPTFDYTYYASWVNGRFSISRENTQNTVSLQINSLTPADTATYFCARWVYGVDDYGDGNWLDLWGQGTLVTISS
VL: QFVLTQSPSVSAALGASAKLTCTLSSAHKTYTIDWYQQQQGEAPRYLMELKSDGSYTKGTGVPDRFSGSSSGADRYLIIPSVQADDEADYYCGTDYSGGYVFGGGTQLTVTG
notes: Human IgG1 constant regions
B16: ERR1-403 (mAb035) IgG with C-terminal sortase and Strep tags (antibody, V domains shown)
VH: QEQLKESGRGLVQPGGSLKLSCKASGFDFSGWYMTWVRQAPGKGLEWIGTIGTTKGRTYYASWVNGRFTISSNAQNTVDLQMNSLTAADRATYFCVRGSDYFDLWGPGTLVTISS
VL: B13 VL with D59A, R95G, F97Y
notes: Human IgG1 constant regions
B17: ERR1-Top43 (mAb036) IgG with C-terminal sortase and Strep tags (antibody, V domains shown)
VH: B14 VH
VL: B13 VL with S26N, D49N, R95G, F97Y
notes: Human IgG1 constant regions
B18: ERR1-301 (mAb027) IgG with C-terminal sortase and Strep tags (antibody, V domains shown)
VH: QEQLEESGGGLVTPGGSLTLTCTASGFTISTYHMSWVRQAPGKGLEWIGSIYAGSGSTYYASWVNGRFTISSNTTQNTVSLQMNSLTVADTATYFCARDHPSYGMDLWGPGTLVTVSS
VL: B13 VL with G63A, G80E, R95V, F97Y
notes: Human IgG1 constant regions
B19: ERR1-324 (mAb034) IgG with C-terminal sortase and Strep tags (antibody, V domains shown)
VH: QSLEESGGGLVQPGESLTLTCTVSGFSLSRNGMTWVRQAPGKGLEWIGIITSSGDKYYATWAKGRFTISKTSSTTVDLKMTSLTTEDTATYFCARGTVSSDIWGPGTLVTISS
VL: ELVLTQTPSPVSAAVGGTVTINCQASQSVYGNNELAWYQQKPGQPPKLLIYRASILTSGVPSRFKGSGSGTQFTLTISNVQREDAATYYCLGGYVSQSYRAAFGGGTELEIL
notes: Human IgG1 constant regions, kappa light chain
B20: XBR1-402 (mAb031) IgG with C-terminal sortase and Strep tags (antibody, V domains shown)
VH: QEQQKESGGGLFKPTDTLTLTCTASGFDISSYYMSWVRQAPGNGLEWIGAIGISGNAYYASWAKSRSTITRNTNLNTVTLKMTSLTAADTATYFCARDHPTYGMDLWGPGTLVTVSS
VL: SYELTQLPSVSVSLGQTARITCEGNNIGSKAVHWYQQKPGLAPGLLIYDDDERPSGVPDRFSGSNSGDTATLTISGAQAGDEADYYCQVWDSSAYVFGGGTQLTVTG
notes: Human IgH-gamma1 and IgL-lambda constant regions

target: T1, StrepII-tagged human ROR1 extracellular domain (human, UniProt Q01973 30-406); experiment: SPR (Biacore T200); mAb captured by goat anti-human Fcγ IgG on CM5; ROR1-strep as analyte (Example 8)
T1 construct: extracellular domain; also called ROR1-strep; strep-tagged human ROR1
Experimental: Affinity screening was then performed to select the best binders. Affinities were determined using a Biacore T200 instrument (GE Healthcare, Buckinghamshire, UK) and data was evaluated using Biacore Evaluation T200 V2.0 software. To capture mAbs, goat α-human Fc-gamma-specific IgG (Jackson ImmunoResearch, #109-005-098) was covalently immobilized on a CM5 chip (GE Healthcare, #BR-1005-30).

T1 sequence (Q01973 other isoform, or with tags, fused parts or gaps): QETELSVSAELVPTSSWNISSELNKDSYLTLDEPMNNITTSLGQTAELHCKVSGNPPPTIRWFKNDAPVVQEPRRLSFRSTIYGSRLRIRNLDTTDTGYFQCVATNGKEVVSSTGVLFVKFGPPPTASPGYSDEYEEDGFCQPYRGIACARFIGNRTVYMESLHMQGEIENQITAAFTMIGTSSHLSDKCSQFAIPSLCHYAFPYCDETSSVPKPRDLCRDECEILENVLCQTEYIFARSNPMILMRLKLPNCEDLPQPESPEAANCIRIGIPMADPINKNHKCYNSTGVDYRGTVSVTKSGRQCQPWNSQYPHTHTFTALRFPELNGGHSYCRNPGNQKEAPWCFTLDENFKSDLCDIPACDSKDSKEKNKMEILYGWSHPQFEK

Binder | Kd [nM] | koff [s⁻¹] | kon [M⁻¹ s⁻¹]
B1 | 3.5 | 0.00394 | 1.11e+06
B2 | 3.2 | 0.00375 | 1.19e+06
B3 | 3.4 | 0.00322 | 960000
B4 | 2.1 | 0.00276 | 1.29e+06
B5 | 3 | 0.00332 | 1.11e+06
B6 | 3.1 | 0.00328 | 1.05e+06

target: T2, human ROR1, full length, on cells (human, UniProt Q01973 30-937); experiment: cell-based or functional assay
T2 sequence (Q01973 30-937): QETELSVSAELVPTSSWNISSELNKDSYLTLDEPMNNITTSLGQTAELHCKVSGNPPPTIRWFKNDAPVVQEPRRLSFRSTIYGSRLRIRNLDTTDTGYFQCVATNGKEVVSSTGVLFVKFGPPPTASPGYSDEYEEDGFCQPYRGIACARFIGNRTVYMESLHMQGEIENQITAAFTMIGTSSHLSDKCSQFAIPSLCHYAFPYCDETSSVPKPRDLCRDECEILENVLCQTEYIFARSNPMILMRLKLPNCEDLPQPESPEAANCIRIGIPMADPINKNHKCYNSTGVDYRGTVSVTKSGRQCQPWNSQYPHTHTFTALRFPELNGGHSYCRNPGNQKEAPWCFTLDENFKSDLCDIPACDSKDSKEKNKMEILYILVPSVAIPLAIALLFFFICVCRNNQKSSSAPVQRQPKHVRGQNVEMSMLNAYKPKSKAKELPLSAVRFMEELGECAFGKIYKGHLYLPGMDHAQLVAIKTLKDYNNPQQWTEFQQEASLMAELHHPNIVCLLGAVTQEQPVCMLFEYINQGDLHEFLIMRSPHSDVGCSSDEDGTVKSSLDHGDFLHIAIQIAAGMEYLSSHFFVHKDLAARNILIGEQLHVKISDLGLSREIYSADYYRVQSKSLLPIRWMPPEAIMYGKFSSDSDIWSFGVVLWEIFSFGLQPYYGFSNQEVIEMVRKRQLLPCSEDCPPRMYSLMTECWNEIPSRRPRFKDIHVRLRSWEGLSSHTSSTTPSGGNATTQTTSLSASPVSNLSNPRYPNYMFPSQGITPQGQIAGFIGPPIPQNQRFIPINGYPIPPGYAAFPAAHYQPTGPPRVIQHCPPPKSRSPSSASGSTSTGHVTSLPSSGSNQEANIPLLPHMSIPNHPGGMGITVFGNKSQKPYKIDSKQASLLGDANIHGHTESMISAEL

Binder | IC50 values on 697 cells (in vitro cell killing) [µg/mL]
B7 | 0.0981
B8 | 0.0917
B9 | 0.0706
B10 | 0.164
B11 | 0.0939
B12 | 0.106

target: T1, StrepII-tagged human ROR1 extracellular …; experiment: SPR (Biacore T200), mAb captured by anti-human Fc-gamma IgG on CM5, ROR1-strep as analyte

Binder | Kd [nM]
B1 | 3.55
B2 | 3.16
B3 | 3.34
B4 | 2.14
B5 | 2.98
B6 | 3.13

target: T3, hROR2 (human, UniProt Q01974); experiment: flow cytometry on T47D cells (ROR2 positive, ROR1 negative); APC goat anti-human Fcγ
T3 construct: full length, on the cell surface; also called 63-12 / hROR2; ROR2 on T47D cells
Experimental: Flow cytometry: Cells were stained using standard flow cytometry methodology. Briefly, for purified anti-ROR1 Fab (FIG. 3), 0.1-1×10⁶ cells were stained with 1000 ng/100 μL of Fab on ice for 1 h. After washing twice with ice-cold flow cytometry buffer (PBS containing 1% (v/v) BSA, 0.1% sodium azide and 1 mM EDTA), the cells were incubated with a 1:1000 dilution of a mouse anti-His tag mAb conjugated to Alexa Fluor 488 (Qiagen) in 100 μL flow cytometry buffer on ice for 30 min. For purified anti-ROR1 IgG1 (FIG. 8), 0.1-1×10⁶ cells were blocked by 4% goat serum for 15 min at room temperature and then incubated with 100 ng/100 μL of IgG on ice for 1 h. After washing twice with ice-cold flow cytometry buffer, cells were stained with a 1:500 dilution of goat anti-human IgG, Fcγ pAbs conjugated to APC (Jackson ImmunoResearch) in 100 μL flow cytometry buffer on ice for 30 min. For commercial goat anti human ROR1 polyclonal antibody (FIG. 8), 0.1-1×10⁶ cells were stained with 200 ng/100 μL of Ab on ice for 1 h. […] Finally, 4′,6-diamidino-2-phenylindole (DAPI) was added to a final concentration of 100 ng/mL to exclude dead cells from the analysis. Cells were analyzed using a FACSCalibur instrument (BD Biosciences) and FlowJo analytical software (Tree Star, Ashland, Oreg.).

T3 sequence (Q01974 34-943 limits assumed): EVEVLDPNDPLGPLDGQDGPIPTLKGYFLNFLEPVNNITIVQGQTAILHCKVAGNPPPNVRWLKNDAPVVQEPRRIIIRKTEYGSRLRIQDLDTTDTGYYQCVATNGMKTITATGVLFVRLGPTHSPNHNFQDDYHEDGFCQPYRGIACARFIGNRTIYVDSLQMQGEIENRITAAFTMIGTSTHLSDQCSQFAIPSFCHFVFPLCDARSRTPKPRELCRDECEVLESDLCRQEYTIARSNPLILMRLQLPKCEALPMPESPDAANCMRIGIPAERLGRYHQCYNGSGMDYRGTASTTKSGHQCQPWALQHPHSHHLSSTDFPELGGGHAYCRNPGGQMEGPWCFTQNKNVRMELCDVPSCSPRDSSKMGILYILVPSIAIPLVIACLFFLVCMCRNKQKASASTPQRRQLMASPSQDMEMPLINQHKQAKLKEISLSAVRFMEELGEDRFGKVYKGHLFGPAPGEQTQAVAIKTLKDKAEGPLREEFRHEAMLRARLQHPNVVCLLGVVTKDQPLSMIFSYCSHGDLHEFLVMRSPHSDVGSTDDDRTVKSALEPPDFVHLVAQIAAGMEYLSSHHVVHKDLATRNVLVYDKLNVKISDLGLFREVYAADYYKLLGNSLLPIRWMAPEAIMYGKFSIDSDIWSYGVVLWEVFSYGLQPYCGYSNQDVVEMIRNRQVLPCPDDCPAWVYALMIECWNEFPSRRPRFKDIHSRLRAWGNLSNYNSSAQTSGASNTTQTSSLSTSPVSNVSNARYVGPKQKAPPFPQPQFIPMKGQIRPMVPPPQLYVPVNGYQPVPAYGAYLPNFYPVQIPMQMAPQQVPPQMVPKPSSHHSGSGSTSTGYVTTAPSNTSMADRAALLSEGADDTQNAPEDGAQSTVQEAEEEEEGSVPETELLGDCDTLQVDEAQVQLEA

Binder | binding result
B13 | no binding (tested: 100 ng/100 µL)

target: T2, human ROR1, full length, on cells; experiment: cell-based or functional assay; remark: another data set of the same source

Binder | IC50 of in vitro cell killing, HS 578T cells (hROR1 status positive) [µg/mL] | IC50 of in vitro cell killing, MDA-MD-468 cells (hROR1 status positive) [µg/mL]
B14 | 0.707 | 0.143

target: T4, twin strep-tagged human ROR2 extracellular domain (human, UniProt Q01974 34-403); experiment: ELISA on coated twin-strep tagged human ROR2; anti-human Fcγ F(ab')2-HRP; absorbance 490 nm
T4 construct: extracellular domain; Expressed in HEK293T; also called ROR2-ECD-TwinStrep
Experimental: Each well of a 96-well plate was coated with 100 μL of 2 μg/mL strep-tagged human ROR1 (from Example 5) in 0.1 M bicarbonate coating buffer (pH 9.6), and incubated for 12 h at 4° C. A second 96-well plate was likewise prepared with twin-strep tagged human ROR2 (from Example 5).
HRP-conjugated F(ab′)₂ anti-human FC-gamma (Jackson Immunoresearch, 109-036-008) was then added at a 1:20′000 dilution, 100 μl per well, and incubated for 1 h at 37° C. prior to detection using an Spark 10M plate reader (Tecan).

T4 sequence (Q01974 34-403): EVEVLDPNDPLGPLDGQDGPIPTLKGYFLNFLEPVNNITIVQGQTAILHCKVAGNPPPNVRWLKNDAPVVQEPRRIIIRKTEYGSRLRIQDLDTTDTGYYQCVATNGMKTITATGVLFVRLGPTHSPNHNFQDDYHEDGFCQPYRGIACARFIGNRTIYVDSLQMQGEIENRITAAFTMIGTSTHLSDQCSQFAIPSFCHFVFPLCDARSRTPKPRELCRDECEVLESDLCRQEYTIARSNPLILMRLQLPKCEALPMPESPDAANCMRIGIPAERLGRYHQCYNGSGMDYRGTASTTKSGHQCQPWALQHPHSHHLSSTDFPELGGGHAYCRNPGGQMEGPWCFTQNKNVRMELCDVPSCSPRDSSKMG

Binder | binding result
B15 | no binding (tested: about 500 ng/ml)
B16 | no binding (tested: about 500 ng/ml)
B17 | no binding (tested: about 500 ng/ml)
B18 | no binding (tested: about 500 ng/ml)
B19 | no binding (tested: about 500 ng/ml)
B20 | no binding (tested: about 500 ng/ml)
